# Measurements reported in patent publication US20240190960A1 (Chugai, published 2024).
# T1: Biotinylated human CD3εδ heterodimer (Fc-fused human CD3ε / Fc-fused human CD3δ) (human, biotin on the Avi tag (BirA))
# T1 chain 1: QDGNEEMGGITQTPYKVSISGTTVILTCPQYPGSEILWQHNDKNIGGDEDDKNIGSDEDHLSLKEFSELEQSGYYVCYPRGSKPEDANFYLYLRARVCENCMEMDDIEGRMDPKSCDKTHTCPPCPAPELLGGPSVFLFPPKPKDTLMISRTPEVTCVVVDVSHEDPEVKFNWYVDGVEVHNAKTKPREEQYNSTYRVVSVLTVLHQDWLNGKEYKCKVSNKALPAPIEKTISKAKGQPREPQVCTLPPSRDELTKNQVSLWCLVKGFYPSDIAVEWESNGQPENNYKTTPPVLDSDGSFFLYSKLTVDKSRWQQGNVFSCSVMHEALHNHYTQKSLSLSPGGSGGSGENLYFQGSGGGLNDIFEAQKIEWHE
# T1 chain 2: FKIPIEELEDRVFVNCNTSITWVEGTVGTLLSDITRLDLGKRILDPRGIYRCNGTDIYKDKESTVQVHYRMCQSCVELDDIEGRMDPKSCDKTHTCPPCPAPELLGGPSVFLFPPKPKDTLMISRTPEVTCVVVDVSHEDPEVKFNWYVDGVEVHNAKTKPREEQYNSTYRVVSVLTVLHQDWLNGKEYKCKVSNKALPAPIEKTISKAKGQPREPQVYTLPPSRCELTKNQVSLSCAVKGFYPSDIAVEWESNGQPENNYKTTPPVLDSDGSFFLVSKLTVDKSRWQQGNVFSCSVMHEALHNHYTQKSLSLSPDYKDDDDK
# Columns and labels:
# [1] = target: T1, Biotinylated human CD3εδ heterodimer …; experiment: BLI (Octet RED384), 37 C; biotinylated CD3εδ on streptavidin sensor, one-arm antibody in solution for 120 s (0-1000 nM used, the concentration shown is not given)
# Procedure: Using an Octet RED 384 (ForteBio), a streptavidin sensor (ForteBio) was reacted with CD3εδ prepared at 0.2 μM in ACES at 37° C. for 300 seconds. […] Response values were extracted every three seconds, and graphs were depicted using Microsoft Excel 2013 (Microsoft).
# [2] = target: T2, Human CD3εδ heterodimer (soluble human CD3ε with FLAG tag / soluble human CD3δ with His tag) (human, UniProt P07766 22-126; P04234 22-105); experiment: SPR (Biacore T200), BiAb captured on protein A, CD3εδ 0-15000 nM as analyte, 37 C
# T2 construct: Positions are counted from 1, so the entries may include the signal peptides
# Procedure: (3) Evaluation of Binding Properties of Clamping Antibodies by SPR Using an Amine Coupling Kit (GE Healthcare), SuRe Protein A (GE Healthcare) Prepared at 25 μg/mL in Acetate4.5 (GE Healthcare) was Immobilized onto Sensor Chip CM4 at Approximately 1200 RU Per Flow Cell.
# HBS-EP+(GE Healthcare) was used for the running buffer, and the measurement was carried out at 37° C. Each antibody was reacted at a flow rate of 10 μL/min for 60 seconds to capture 1000 RU, and analyte CD3εδ prepared at 0 nM, 4.8 nM, 24 nM, 120 nM, 600 nM, 3000 nM, or 15000 nM was allowed to act at a flow rate of 30 μL/min for 60 seconds to monitor the binding phase, and HBS-EP+ was passed at a flow rate of 30 μL/min for 120 seconds to monitor the dissociation phase. The sensor chip was regenerated by passing Glycine1.5 and 25 mM NaOH, each at a flow rate of 30 μL/min for 30 seconds. The dissociation constant KD (M) was calculated based on the association rate constant ka (1/Ms) and the dissociation rate constant kd (1/s), which are kinetic parameters calculated from the sensorgram obtained by the measurement. Biacore T200 Evaluation Software (GE Healthcare) was used for the calculation of each parameter.
Binder,binding result [1],Kd [2] [µM]
"CE115HA000 one arm (CE115HA000-pE22Hh/GLS3000-k0//Kn010) (antibody, human IgG1, kappa, L234A L235A, N297A, also called one-arm antibody CE115HA000) heavy: QVQLVESGGGVVQPGRSLRLSCAASGFTFSNAWMHWVRQAPGKGLEWVAQIKAKSNNYATYYAESVKGRFTISRDDSKNSLYLQMNSLKTEDTAVYYCRYVHYGAYYGVDAWGQGTTVTVSSASTKGPSVFPLAPSSKSTSGGTAALGCLVKDYFPEPVTVSWNSGALTSGVHTFPAVLQSSGLYSLSSVVTVPSSSLGTQTYICNVNHKPSNTKVDKKVEPKSCDKTHTCPPCPAPEAAGGPSVFLFPPKPKDTLMISRTPEVTCVVVDVSHEDPEVKFNWYVDGVEVHNAKTKPREEQYASTYRVVSVLTVLHQDWLNGKEYKCKVSNKALPAPIEKTISKAKGQPREPQVYTLPPSRCELTKNQVSLSCAVKGFYPSDIAVEWESNGQPENNYKTTPPVLDSDGSFFLVSKLTVDKSRWQQGNVFSCSVMHEALHNHYTQKSLSLSPDYKDDDDK light: DIVMTQSPLSLPVTPGEPASISCRSSQSLVHSNRNTYLHWYQQKPGQAPRLLIYKVSNRFSGVPDRFSGSGSGTDFTLKISRVEAEDVGVYYCGQGTQVPYTFGQGTKLEIKRTVAAPSVFIFPPSDEQLKSGTASVVCLLNNFYPREAKVQWKVDNALQSGNSQESVTEQDSKDSTYSLSSTLTLSKADYEKHKVYACEVTHQGLSSPVTKSFNRGEC not shown",binds,–
"BiAb of CE115HA000-BS03a/GLS3000-k0 with the IC17 arm (bispecific antibody, human IgG1, kappa, N297A, how the CE115/IC17 BiAb was made is not described) heavy 1: QVQLVESGGGVVQPGRSLRLSCAASGFTFSNAWMHWVRQAPGKGLEWVAQIKAKSNNYATYYAESVKGRFTISRDDSKNSLYLQMNSLKTEDTAVYYCRYVHYGAYYGVDAWGQGTTVTVSSASTKGPSVFPLAPSSRSTSESTAALGCLVKDYFPEPVTVSWNSGALTSGVHTFPAVLQSSGLYSLSSVVTVPSSSLGTKTYTCNVDHKPSNTKVDKRVEPKSCDKTHTCPPCPAPELRRGPKVFLFPPKPKDTLMISRTPEVTCVVVDVSQEDPEVQFNWYVDGVEVHNAKTKPREEQFASTYRVVSVLTVLHQDWLNGKEYKCKVSNKGLPSSIEKTISKAKGQPREPQVYTLPPSREEMTKNQVSLTCLVKGFYPSDIAVEWESNGQPENNYKTTPPYLDSDGSFFLYSKLTVDKSRWQQGNVFSCSVMHEALHNHYTQESLSLSP light 1: DIVMTQSPLSLPVTPGEPASISCRSSQSLVHSNRNTYLHWYQQKPGQAPRLLIYKVSNRFSGVPDRFSGSGSGTDFTLKISRVEAEDVGVYYCGQGTQVPYTFGQGTKLEIKRTVAAPSVFIFPPSDEQLKSGTASVVCLLNNFYPREAKVQWKVDNALQSGNSQESVTEQDSKDSTYSLSSTLTLSKADYEKHKVYACEVTHQGLSSPVTKSFNRGEC heavy 2: QVQLQQSGPQLVRPGASVKISCKASGYSFTSYWMHWVNQRPGQGLEWIGMIDPSYSETRLNQKFKDKATLTVDKSSSTAYMQLSSPTSEDSAVYYCALYGNYFDYWGQGTTLTVSSASTKGPSVFPLAPSSRSTSESTAALGCLVKDYFPEPVTVSWNSGALTSGVHTFPAVLQSSGLYSLSSVVTVPSSSLGTKTYTCNVDHKPSNTKVDKRVEPKSCDKTHTCPPCPAPELRRGPKVFLFPPKPKDTLMISRTPEVTCVVVDVSQEDPEVQFNWYVDGVEVHNAKTKPREEQFASTYRVVSVLTVLHQDWLNGKEYKCKVSNKGLPSSIEKTISKAKGQPREPQVYTLPPSREEMTKNQVSLTCLVKGFYPSDIAVEWESNGQPENNYKTTPPYLDSDGSFFLYSKLTVDKSRWQQGNVFSCSVMHEALHNHYTQESLSLSP light 2: DIQMTQSSSSFSVSLGDRVTITCKASEDIYNRLAWYQQKPGNAPRLLISGATSLETGVPSRFSGSGSGKDYTLSITSLQTEDVATYYCQQYWSTPYTFGGGTKLEVKRTVAAPSVFIFPPSDEQLKSGTASVVCLLNNFYPREAKVQWKVDNALQSGNSQESVTEQDSKDSTYSLSSTLTLSKADYEKHKVYACEVTHQGLSSPVTKSFNRGEC",–,0.35
"BiAb of CE115HA056-BS03a/GLS3000-k0 with the IC17 arm (bispecific antibody, human IgG1, kappa, N297A, See m38 on the IC17 arm) heavy 1: QVQLVESGGGVVQPGRSLRLSCAASGFTFSNAWMHWVRQAPGKGLEWVAQIKAKSNNYATYYAESVKGRFTISRDDSKNSLYLQMNSLKTEDTAVYYCRYAHYGAYYGVDAWGQGTTVTVSSASTKGPSVFPLAPSSRSTSESTAALGCLVKDYFPEPVTVSWNSGALTSGVHTFPAVLQSSGLYSLSSVVTVPSSSLGTKTYTCNVDHKPSNTKVDKRVEPKSCDKTHTCPPCPAPELRRGPKVFLFPPKPKDTLMISRTPEVTCVVVDVSQEDPEVQFNWYVDGVEVHNAKTKPREEQFASTYRVVSVLTVLHQDWLNGKEYKCKVSNKGLPSSIEKTISKAKGQPREPQVYTLPPSREEMTKNQVSLTCLVKGFYPSDIAVEWESNGQPENNYKTTPPYLDSDGSFFLYSKLTVDKSRWQQGNVFSCSVMHEALHNHYTQESLSLSP light 1: DIVMTQSPLSLPVTPGEPASISCRSSQSLVHSNRNTYLHWYQQKPGQAPRLLIYKVSNRFSGVPDRFSGSGSGTDFTLKISRVEAEDVGVYYCGQGTQVPYTFGQGTKLEIKRTVAAPSVFIFPPSDEQLKSGTASVVCLLNNFYPREAKVQWKVDNALQSGNSQESVTEQDSKDSTYSLSSTLTLSKADYEKHKVYACEVTHQGLSSPVTKSFNRGEC heavy 2: QVQLQQSGPQLVRPGASVKISCKASGYSFTSYWMHWVNQRPGQGLEWIGMIDPSYSETRLNQKFKDKATLTVDKSSSTAYMQLSSPTSEDSAVYYCALYGNYFDYWGQGTTLTVSSASTKGPSVFPLAPSSRSTSESTAALGCLVKDYFPEPVTVSWNSGALTSGVHTFPAVLQSSGLYSLSSVVTVPSSSLGTKTYTCNVDHKPSNTKVDKRVEPKSCDKTHTCPPCPAPELRRGPKVFLFPPKPKDTLMISRTPEVTCVVVDVSQEDPEVQFNWYVDGVEVHNAKTKPREEQFASTYRVVSVLTVLHQDWLNGKEYKCKVSNKGLPSSIEKTISKAKGQPREPQVYTLPPSREEMTKNQVSLTCLVKGFYPSDIAVEWESNGQPENNYKTTPPYLDSDGSFFLYSKLTVDKSRWQQGNVFSCSVMHEALHNHYTQESLSLSP light 2: DIQMTQSSSSFSVSLGDRVTITCKASEDIYNRLAWYQQKPGNAPRLLISGATSLETGVPSRFSGSGSGKDYTLSITSLQTEDVATYYCQQYWSTPYTFGGGTKLEVKRTVAAPSVFIFPPSDEQLKSGTASVVCLLNNFYPREAKVQWKVDNALQSGNSQESVTEQDSKDSTYSLSSTLTLSKADYEKHKVYACEVTHQGLSSPVTKSFNRGEC",–,7.4
"CE115HA056 one arm (CE115HA056-pE22Hh/GLS3000-k0//Kn010) (antibody, human IgG1, kappa, L234A L235A, N297A, One-arm format; also called one-arm antibody CE115HA056) heavy: QVQLVESGGGVVQPGRSLRLSCAASGFTFSNAWMHWVRQAPGKGLEWVAQIKAKSNNYATYYAESVKGRFTISRDDSKNSLYLQMNSLKTEDTAVYYCRYAHYGAYYGVDAWGQGTTVTVSSASTKGPSVFPLAPSSKSTSGGTAALGCLVKDYFPEPVTVSWNSGALTSGVHTFPAVLQSSGLYSLSSVVTVPSSSLGTQTYICNVNHKPSNTKVDKKVEPKSCDKTHTCPPCPAPEAAGGPSVFLFPPKPKDTLMISRTPEVTCVVVDVSHEDPEVKFNWYVDGVEVHNAKTKPREEQYASTYRVVSVLTVLHQDWLNGKEYKCKVSNKALPAPIEKTISKAKGQPREPQVYTLPPSRCELTKNQVSLSCAVKGFYPSDIAVEWESNGQPENNYKTTPPVLDSDGSFFLVSKLTVDKSRWQQGNVFSCSVMHEALHNHYTQKSLSLSPDYKDDDDK light: DIVMTQSPLSLPVTPGEPASISCRSSQSLVHSNRNTYLHWYQQKPGQAPRLLIYKVSNRFSGVPDRFSGSGSGTDFTLKISRVEAEDVGVYYCGQGTQVPYTFGQGTKLEIKRTVAAPSVFIFPPSDEQLKSGTASVVCLLNNFYPREAKVQWKVDNALQSGNSQESVTEQDSKDSTYSLSSTLTLSKADYEKHKVYACEVTHQGLSSPVTKSFNRGEC not shown",binds,–
